In the supplement of paper PMC10126150:
± gives the standard deviation of the averaged measurements.

System: ATP
Assay: switch fluorescence ratio, 500 uM ATP over buffer (Cy3 cluster intensity, sum of 5 cycles each) (fold (ratio)); higher = stronger signal-on switching upon ATP binding; sequences stand for … in TCGTCGGCAGCGTCAGATGTGTATAAGAGACAGTTTTTTTTTTTTTTTTTTTTTTTTT…TC
Details: aptamer strand: ATP DNA aptamer (quencher-CACCTGGGGGAGTATTGCGGAGGAAGG + anchor), 100 nM annealed; ATP concentration: 500 uM
Outline: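 Clusters with intensities outside 100-1000 RFU were excluded. The remaining Cy3-labelled switching-strand clusters on a modified Illumina MiSeq flow-cell had been annealed to 100 nM quencher-labelled ATP aptamer and imaged in selection buffer, then after 15 min with 500 uM ATP at 22 °C, for five cycles separated by NaOH stripping and re-annealing. The fluorescence ratio, averaged per switch-domain sequence, is each cluster's summed target-cycle Cy3 intensity over its summed buffer-cycle Cy3 intensity.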
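Further: ATP exposure 15 min at 22 °C before imaging.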

Sequence	switch fluorescence ratio
TTGTTGCCGT	0.984 ± 0.065
TTGTTGCGTT	0.986 ± 0.025
TTGTTGGAAT	1 ± 0.019
TTGTTGGAGG	0.982 ± 0.025
TTGTTGGAGT	0.985 ± 0.018
TTGTTGGGAT	0.996 ± 0.028
TTGTTGGGG	0.994 ± 0.03
TTGTTGGGGA	1 ± 0.019
TTGTTGGTCT	1.009 ± 0.0075
TTGTTGGTTG	0.975 ± 0.034
TTGTTGTCTT	1.02 ± 0.043
TTGTTGTGGG	0.986 ± 0.024
TTGTTGTTTG	1.03 ± 0.025
TTGTTTAAGT	1.001 ± 0.0081
TTGTTTAATA	1.02 ± 0.019
TTGTTTAATC	1.036 ± 0.0097
TTGTTTAGCC	0.989 ± 0.032
TTGTTTATGG	0.983 ± 0.015
TTGTTTCAGG	1.01 ± 0.018
TTGTTTCTTT	1 ± 0.017
TTGTTTGAAA	1 ± 0.064
TTGTTTGCCT	1.04 ± 0.037
TTGTTTGGTT	0.983 ± 0.034
TTGTTTTATT	0.981 ± 0.038
TTGTTTTCCT	1.02 ± 0.011
TTGTTTTCTT	1 ± 0.045

Sequence	switch fluorescence ratio
TTGTTTTGTG	0.978 ± 0.013
TTGTTTTTAG	0.988 ± 0.04
TTGTTTTTCC	1.03 ± 0.057
TTTAAAAA	1.02 ± 0.044
TTTAAAAAGG	0.982 ± 0.029
TTTAAAAGGG	1 ± 0.027
TTTAAAATAG	1.01 ± 0.019
TTTAAACTT	1.63 ± 1.1
TTTAAACTTT	1.013 ± 0.0075
TTTAAAGGTT	1.02 ± 0.054
TTTAAATTAG	0.969 ± 0.046
TTTAAATTTT	1 ± 0.03
TTTAACGCCA	1.082 ± 0.0028
TTTAACGGGG	0.987 ± 0.034
TTTAACGTAC	1.83 ± 0.15
TTTAACGTCG	1.035 ± 0.005
TTTAAGAAGG	1 ± 0.015
TTTAAGAATC	0.994 ± 0.03
TTTAAGAGAT	0.998 ± 0.028
TTTAAGATAT	1.09 ± 0.074
TTTAAGCGCC	0.966 ± 0.0085
TTTAAGGATT	1.21 ± 0.33
TTTAAGGTTG	0.986 ± 0.023
TTTAAGTAGG	1.02 ± 0.048
TTTAAGTATT	0.999 ± 0.02
TTTAAGTCGA	1.02 ± 0.04

Sequence	switch fluorescence ratio
TTTAAGTGAG	0.981 ± 0.021
TTTAATAGTG	0.971 ± 0.014
TTTAATATGA	0.997 ± 0.035
TTTAATCAGG	1.04 ± 0.025
TTTAATTCT	0.989 ± 0.022
TTTAATTGTA	1.01 ± 0.044
TTTAATTTT	1.04 ± 0.078
TTTAATTTTG	1 ± 0.036
TTTACACGAT	1.01 ± 0.019
TTTACAGAGT	1.06 ± 0.12
TTTACAGCTT	0.987 ± 0.027
TTTACAGGAT	0.993 ± 0.024
TTTACCAGGG	1.13 ± 0.085
TTTACCATAG	1.06 ± 0.019
TTTACCCAGT	1.04 ± 0.066
TTTACCCATC	1.04 ± 0.033
TTTACCGGTA	1.01 ± 0.023
TTTACCGTCT	1.04 ± 0.018
TTTACCTATA	1.02 ± 0.013
TTTACGAAGT	0.966 ± 0.013
TTTACGCGTC	1.16 ± 0.27
TTTACGGAGC	1.37 ± 0.075
TTTACGGCGG	0.987 ± 0.021
TTTACGGCGT	0.994 ± 0.017
TTTACGGCTT	1.05 ± 0.078
TTTACGGGGG	1 ± 0.043

Sequence	switch fluorescence ratio
TTTACGTGCA	1.04 ± 0.073
TTTACTATTT	0.988 ± 0.035
TTTACTGCTT	0.981 ± 0.044
TTTACTGGCT	1.02 ± 0.0011
TTTAGAACGA	1.01 ± 0.025
TTTAGAATTT	1.01 ± 0.019
TTTAGACTGG	1 ± 0.022
TTTAGAGCTT	1.02 ± 0.024
TTTAGATAAA	1.02 ± 0.017
TTTAGATATT	0.98873 ± 0.00041
TTTAGATCAA	1 ± 0.0019
TTTAGATGCT	1.03 ± 0.099
TTTAGATTCA	1.001 ± 0.0043
TTTAGCATGT	1.04 ± 0.073
TTTAGCCGGG	0.985 ± 0.014
TTTAGCCTCG	0.992 ± 0.046
TTTAGCGGGG	1.01 ± 0.016
TTTAGCTGCC	1.16 ± 0.064
TTTAGCTTCA	1.099 ± 0.0078
TTTAGCTTTA	0.9735 ± 0.0092
TTTAGCTTTT	1.04 ± 0.01
TTTAGGATCT	0.954 ± 0.017
TTTAGGCAAA	1.05 ± 0.12
TTTAGGCCCA	1.03 ± 0.041
TTTAGGCGTT	1.01 ± 0.057
TTTAGGCTTG	1.02 ± 0.017

Sequence	switch fluorescence ratio
TTTAGGGGGC	1.03 ± 0.032
TTTAGGGGTT	1.02 ± 0.083
TTTAGGGTAT	1.012 ± 0.0069
TTTAGGTGGC	1.02 ± 0.009
TTTAGTAAAC	1.08 ± 0.11
TTTAGTGCTT	0.997 ± 0.03
TTTAGTTACG	0.987 ± 0.013
TTTAGTTACT	1.06 ± 0.022
TTTAGTTGAA	0.988 ± 0.023
TTTAGTTTGT	0.99 ± 0.036
TTTATAAAGA	1.02 ± 0.059
TTTATAAAGT	0.958 ± 0.032
TTTATAAGTA	1.02 ± 0.026
TTTATAAGTT	0.986 ± 0.023
TTTATAATCT	1.05 ± 0.019
TTTATACGTT	1.01 ± 0.044
TTTATACTTT	1.06 ± 0.1
TTTATAGACT	1.02 ± 0.0016
TTTATAGGAA	1.02 ± 0.03
TTTATAGTGC	1.01 ± 0.027
TTTATATAGA	0.996 ± 0.033
TTTATATGGT	0.988 ± 0.028
TTTATATTGG	1.034 ± 0.00088
TTTATCAGAC	1.07 ± 0.059
TTTATCATTG	0.9909 ± 0.0086
TTTATGAAAT	1.12 ± 0.19

Sequence	switch fluorescence ratio
TTTATGCCGT	0.9505 ± 0.0022
TTTATGCTTT	1.01 ± 0.024
TTTATGGAGT	1.024 ± 0.0018
TTTATGGGTG	1.01 ± 0.016
TTTATGTCTG	1.01 ± 0.039
TTTATGTTAT	1.1 ± 0.097
TTTATGTTGG	0.979 ± 0.036
TTTATGTTTC	0.98 ± 0.025
TTTATTAATG	1.01 ± 0.026
TTTATTACTT	1 ± 0.029
TTTATTATAT	1.01 ± 0.031
TTTATTATGC	1.03 ± 0.026
TTTATTATGG	0.989 ± 0.032
TTTATTGGCT	1 ± 0.051
TTTATTGGGC	0.988 ± 0.053
TTTATTGTCA	0.987 ± 0.029
TTTATTTAAT	1.03 ± 0.035
TTTATTTACT	1.011 ± 0.0036
TTTATTTGCG	0.9875 ± 0.0067
TTTATTTTTT	1 ± 0.039
TTTCAAAAGA	1 ± 0.048
TTTCAAAGTA	0.9657 ± 0.0071
TTTCAACGGT	1.009 ± 0.0075
